This is an account of results in the supplement of paper PMC10567573.

± gives the standard deviation.

The nature of this data set: protein stability index of a GFP-peptide fusion (GPS, HEK-293T) (PSI 1-6); higher = more stable.
The mark [1] stands for this setting: treatment: DMSO, c terminus: a fixed tail appended.
The mark [2] stands for this setting: treatment: MLN4924 1 uM, 8 h, c terminus: a fixed tail appended.
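Note: 24-mer peptide tiles fused after GFP, lentivirally expressed, FACS-sorted into six equal bins by GFP/DsRed ratio, decoded by Illumina sequencing, PSI is the read-weighted mean bin number.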

In the case of GRSFREEQCVSFNSHVYNGRTHQW [ADAMTSL2], the protein stability index by setting is: under setting [1], 3.05 ± 0.56; under setting [2], 3.15 ± 0.87.
For GRWLRSTRFSGSLDRLRETRVAD [PCDHGC5], the protein stability index runs as follows: (treatment: DMSO, c terminus: native) 2.62 ± 0.48; (treatment: MLN4924 1 uM, 8 h, c terminus: native) 2.84 ± 0.14.
Regarding GSLCSLWFGASVLSLLELLELLLD [SCNN1D], the protein stability index stood at 2.17 ± 0.36 under setting [1] and 1.91 ± 0.27 under setting [2].
On to GSLHAGGARLVAACSAWLCPGLRL [AUH], for which the protein stability index under setting [2] is 2.43 ± 0.7.
As to GSMEQVSSHFLEQTLDKKLMSDLR [INTS4], the protein stability index by setting is: under setting [1], 3.72 ± 0.2; under setting [2], 3.73 ± 0.6.
Regarding GSRVLHVVQTLYPFSSVTEEELNF [NCK2], the protein stability index was 2.31 ± 0.31 under setting [1] and 2.31 ± 0.22 under setting [2].
In the case of GSSETETEPPVALAPGPAPTRCLP [ESRRA], the protein stability index reads like this: under setting [1], 5.23 ± 0.28; under setting [2], 5.16 ± 0.11.
For GSSGGQQPSGMKEGVKRYEQEHAA [CHCHD6], the protein stability index runs as follows: under setting [1], 5 ± 0.054; under setting [2], 5.47 ± 0.21.
With GTADGRVVKLENGEIETIARFGSG [APMAP], the protein stability index is, setting by setting: under setting [1], 4.66 ± 0.25; under setting [2], 4.64 ± 0.1.
The like results for GTGTGPEDGRPSLGSPYGQPPRFP [PDLIM4] were, in that order, 4.37 ± 0.21 and 4.53 ± 0.22.
With GTLVQLLGSDDINVVTCAAGILSN [CTNNB1], the protein stability index under setting [1] was 2.32 ± 0.52 and the protein stability index under setting [2] was 2.28 ± 0.12.
Regarding GTTVTFDDLMGILCKSVLEIERAI [FEM1C], the protein stability index under setting [1] was 2.31 ± 0.26 and the protein stability index under setting [2] amounted to 2.14 ± 0.42.
The matching figures for GVDSMAEEGTSDSNTGSESNSATV [SMARCE1]: 5.41 ± 0.14 and 5.57 ± 0.41.
As to GVIVANMTEWKHQRITKQLEKWMQ [GLT8D2], the protein stability index by setting is: under setting [1], 2.18 ± 0.085; under setting [2], 2.4 ± 0.18.
On to GVNYPKPMVNHAEASRLNIERMKQ [CRY1], for which the protein stability index runs as follows: under setting [1], 4.2 ± 0.3; under setting [2], 4.11 ± 0.62.
For GVTEEQEGFADGFVKALDDLHKMN [JUNB], the protein stability index came out at 4.69 ± 0.17 under setting [1] and 4.47 ± 0.32 under setting [2].
GYNWCHDRNVVTIFSAPNYCYRCG [PPP2CA]: the protein stability index runs as follows: under setting [1], 2.4 ± 0.41; under setting [2], 2.27 ± 0.46.
The like results for GYSTHADFVLEMNTAKSTSRVTAF [NLN] were, in that order, 2.29 ± 0.2 and 2.51 ± 0.12.
The matching figures for GYSWSMGAYKSSTICYCPEKGTWT [KLHL14]: 2.03 ± 0.26 and 2.08 ± 0.34.
HAGQGGLFYSAEVEMLCDQAWGSM [CCDC3]: the protein stability index worked out at 2.53 ± 0.77 under setting [1] and 2.47 ± 0.39 under setting [2].
Regarding HAQVVEELSNFKSQKVLGLNEDPL [ZBED1], the protein stability index is, setting by setting: under setting [1], 4.34 ± 0.28; under setting [2], 4.44 ± 0.32.
On to HECGTKYPVEWAKFCCECGIRRMI [ZC2HC1A], for which the protein stability index by setting is: under setting [1], 2.48 ± 0.3; under setting [2], 2.71 ± 0.46.
HEMREQHDAQVRLYKEELEQTYHA [LMNB1] came in with a protein stability index under setting [1] of 4.08 ± 0.38 and a protein stability index under setting [2] of 4.27 ± 0.48.
Consider HFDLRDDDDAEEEGPKRELGVRRP [TCF25], for which the protein stability index worked out at 5.32 ± 0.26 under setting [1] and 5.24 ± 0.3 under setting [2].
Consider HGLAFWFDVAFIGSIMTVWLSTAP [CARM1], for which the protein stability index reads like this: under setting [1], 2.78 ± 0.33; under setting [2], 3.1 ± 0.53.
Take HHSLASSLRSHHTHPSYGPPGVPP [DVL3]: the protein stability index came to 3.51 ± 0.29 under setting [1] and 3.58 ± 0.22 under setting [2].
As to HKVLELTAENERLQKKVEQLSREL [CEBPB], the protein stability index by setting is: under setting [1], 5.76 ± 0.23; under setting [2], 5.811 ± 0.011.
On to HLCLRKADQKLVIIKQIPVEQMTK [NEK8], for which the protein stability index amounted to 2.46 ± 0.19 under setting [1] and 2.75 ± 0.23 under setting [2].
In the case of HLDPGFLASDKTSAGNAPLNEEIN [C18orf25], the protein stability index reads like this: under setting [1], 4.75 ± 0.29; under setting [2], 4.97 ± 0.33.
For HLGCAVYQDMIYAVGGRDDTTELS [KLHL20], the protein stability index reads like this: under setting [1], 3.39 ± 0.14; under setting [2], 3.38 ± 0.17.
The matching figures for HPANRSCRETGSFLDLFRYRVLLG [SLC22A15]: 2.48 ± 0.44 and 2.15 ± 0.42.
The like results for HPCGDKNCPAHWLAQDWERCNTTC [ADAMTSL2] were, in that order, 4.21 ± 0.14 and 3.99 ± 0.26.
Take HQEGAKMAVRLAGGLQKMVALLNK [CTNNB1]: the protein stability index amounted to 2.4 ± 0.11 under setting [1] and 2.42 ± 0.27 under setting [2].
Regarding HQRIHTGEKPFECNECGKAFRWGA [ZNF232], the protein stability index was 2.64 ± 0.5 under setting [1] and 2.61 ± 0.67 under setting [2].
Regarding HRKAVHLRTRGRTRGWVQTLARMS [C6orf223], the protein stability index reads like this: under setting [1], 2.57 ± 0.34; under setting [2], 2.49 ± 0.17.
Take HRNLSQLPNFAFSVPLAYFLLSQQ [TCF25]: the protein stability index was 2.26 ± 0.56 under setting [1] and 2.65 ± 0.26 under setting [2].
Turning to HRTVKLVPWSQCLQNFLLHGTKNV [WSB1], the protein stability index worked out at 2.19 ± 0.17 under setting [1] and 1.99 ± 0.21 under setting [2].
In turn, HSGEKPYKCSDCGKTFKQSSNLGQ [ZNF232] came in with a protein stability index under setting [1] of 3.76 ± 0.3 and a protein stability index under setting [2] of 3.57 ± 0.37.
Take HSGTKRDPKEDVFQQNHLFWLQNS [PHTF1]: the protein stability index by setting is: under setting [1], 3.42 ± 0.25; under setting [2], 3.33 ± 0.26.
With HSKASLPTGEGSISHEEQKSVRLA [CHCHD6], the protein stability index came out at 5.14 ± 0.2 under setting [1] and 5.15 ± 0.17 under setting [2].
On to HSKQYRCLSFQPECSMKLTPLVLE [VDR], for which the protein stability index is, setting by setting: under setting [1], 2.5 ± 0.29; under setting [2], 2.42 ± 0.14.
As to HSQELTNEKEKALQAQVQYQQQHE [SASS6], the protein stability index is, setting by setting: under setting [1], 5.45 ± 0.26; under setting [2], 5.51 ± 0.14.
The matching figures for HTGEKPYTCHECGDSFSHSSNRIR [ZNF263]: 2.67 ± 0.2 and 3.4 ± 0.48.
In the case of HVDSIKFCGATIAGLSLLSPSVMR [ALKBH7], the protein stability index is, setting by setting: under setting [1], 2.2 ± 0.81; under setting [2], 2.19 ± 0.39.
On to HVRHMAYQLCHALRFLHENQLTHT [CLK3], for which the protein stability index by setting is: under setting [1], 3.06 ± 0.3; under setting [2], 3.01 ± 0.38.
For HVRQGVFSSLNHIVEKRVLAHLAP [INTS3], the protein stability index is, setting by setting: under setting [1], 2.32 ± 0.21; under setting [2], 2.41 ± 0.12.
On to HYAGQDATDPFVAFHINKGLVKKY [FADS1], for which the protein stability index is 3.21 ± 0.26 under setting [1] and 3.14 ± 0.11 under setting [2].
In the case of IAIVSVMVILISIVIFCLETLPEL [KCNA1], the protein stability index was found to be 2.39 ± 0.25 under setting [1] and 2.44 ± 0.16 under setting [2].
As for ICDRTATPLDAFRMTSAAHYYPKL [GFOD1], the protein stability index was found to be 2.85 ± 0.21 under setting [1] and 2.82 ± 0.16 under setting [2].
The matching figures for ICEATQIIDYLEQTFLDERTPRLM [GDAP1]: 2.39 ± 0.24 and 2.45 ± 0.18.
Take ICEQAEYHMFQREKVEVQLPELFH [KCNAB2]: the protein stability index by setting is: under setting [1], 3.17 ± 0.24; under setting [2], 3.06 ± 0.29.
ICPICLEMFTKPVVILPCQHNLCR [TRIM55] displayed a protein stability index under setting [1] of 2.42 ± 0.17 and a protein stability index under setting [2] of 2.96 ± 0.51.
Consider ICQGIRGLWGTTLTENTAENRELY [PKD2L1], for which the protein stability index came to 3.03 ± 0.19 under setting [1] and 3.37 ± 0.21 under setting [2].
For IEERKQGLEQFINKVAGHPLAQNE [SNX3], the protein stability index amounted to 4.54 ± 0.13 under setting [1] and 4.31 ± 0.47 under setting [2].
Regarding IELNPPEKMALDPYTELRKQPLRK [EFHC1], the protein stability index runs as follows: under setting [1], 4.08 ± 0.2; under setting [2], 4.21 ± 0.33.
For the sequence IFRSYSRGAQGVILVYDIANRWSF [RAB40A], the protein stability index by setting is: under setting [1], 2.53 ± 0.36; under setting [2], 2.36 ± 0.35.
With IFSLATEWVISTGHDKCVSWMCTR [WDFY1], the protein stability index is 2.94 ± 0.47 under setting [1] and 2.85 ± 0.66 under setting [2].
The like results for IGCVFAELLTGQPLWPGKSDVDQL [CDKL4] were, in that order, 2.09 ± 0.32 and 2.15 ± 0.57.
Regarding IHGTLHLERLAYLHARLRELLCEL [PRAME], the protein stability index was determined as 2.04 ± 0.3 under setting [1] and 2.06 ± 0.31 under setting [2].
IHLDPRTREGFTLLHLAVNSNTPV [FEM1B]: the protein stability index was 2.24 ± 0.41 under setting [1] and 2.17 ± 0.27 under setting [2].
As for IKGKSCRTITFEQFQEALEELAKK [TPPP], the protein stability index came out at 2.53 ± 0.26 under setting [1] and 2.62 ± 0.36 under setting [2].
The matching figures for IKPENILITKQGIIKICDFGFAQI [CDKL4]: 2.18 ± 0.29 and 2.49 ± 1.
The like results for IKSEDMLKILKPSIPLERIHFDSY [FBXO33] were, in that order, 2.43 ± 0.23 and 2.36 ± 0.29.
The like results for IKYFRVDFYEAMDDYTSAIEVQPN [TTC32] were, in that order, 2.48 ± 0.51 and 2.1 ± 0.46.
Regarding ILILEGGYNLTSISESMAACTRSL [HDAC6], the protein stability index is, setting by setting: under setting [1], 2.97 ± 0.61; under setting [2], 2.63 ± 0.8.
In the case of ILLNGVSGWIFFYVPSSESFIIYL [P2RY14], the protein stability index runs as follows: under setting [1], 2.74 ± 0.27; under setting [2], 2.84 ± 0.52.
Regarding ILTEPAQAQKCYRDLALVSRDGMN [INTS3], the protein stability index stood at 3.28 ± 0.3 under setting [1] and 3.24 ± 0.6 under setting [2].
Turning to INGSEGDGAEIAEKFVFFIGSKNG [DYNC2LI1], the protein stability index reads like this: under setting [1], 2.99 ± 0.21; under setting [2], 3.4 ± 0.26.
The like results for INRTFFFDVHPPLGKMLIGLAGYL [POMT2] were, in that order, 3.07 ± 0.57 and 2.6 ± 0.59.
As for INVYGNTALHIACYNGQDAVVNEL [ANKRD44], the protein stability index amounted to 2.06 ± 0.16 under setting [1] and 2.23 ± 0.16 under setting [2].
For the sequence INYNGIFSLKQEETLDYGKNYNYG [NEUROD6], the protein stability index runs as follows: under setting [1], 2.49 ± 0.22; under setting [2], 2.53 ± 0.22.
As to IPLLSSVNVSDRGGRTALHHAALN [ANKRD44], the protein stability index was 3.42 ± 0.38 under setting [1] and 3.16 ± 0.3 under setting [2].
